Test results published in patent US20150159134A1, “METHOD FOR PRODUCING RETINAL PIGMENT EPITHELIAL CELLS” (PFIZER LIMITED, priority 2013, published 2015).
Entries after “also recorded” stand apart in the source; their conditions may differ.

Experiments:
Format in all cases: cell-based, human
[1] = test system: Shef-1 hESCs; assay: Alternative BMP pathway activators, MITF expression (immunostaining, qPCR); details: Day 13; BMPs Day 6-9: 50-200 ng/ml BMP4/7 heterodimer, 200 ng/ml BMP4, 300 ng/ml BMP7, 100 ng/ml BMP2/6
Procedure: Shef-1 hESCs were seeded onto Matrigel coated 96-well plates at a density of 125000 cells/cm^2. […] On Day 9, BMPs were withdrawn and cells maintained in DMEM KSRXF alone for 4 days. On Day 13, MITF expression was tested by Immunostaining and qPCR analysis.

[2] = test system: Shef-1 hESCs; assay: Induction of RPE markers MITF and PMEL17 by BMP pathway activation (qPCR, immunocytochemistry)
Procedure: This example illustrates the effect of a BMP pathway activator on RPE marker expression. Shef-1 hESCs were seeded onto Matrigel coated 96-well plates at a density of 125000 cells/cm^2. […] Cells for the uninduced control were left untreated. On Day 6, 100 ng/ml BMP4/7 or 100 ng/ml activin A+10 mM Nicotinamide or nothing was added to the media for 3 days. On Day 9, BMP4/7 or activin A and Nicotinamide were withdrawn and cells were treated with DMEM KSRXF alone for 4 days. Samples were prepared for RNA extraction and qPCR analysis.
Immunocytochemistry was carried out in 96-well or 384-well format. Media was aspirated and 50 μL 4% paraformaldehyde (PFA) was added to each well and incubated for 35 minutes at room temperature. PFA was aspirated and cells washed 3×100 uL PBS(+/+). Cells were incubated for 1 hour at room temperature in the dark in blocking buffer (PBS(+/+)/5% normal donkey serum (NDS)/0.3% TritonX100). 1° antibodies were made up in PBS(+/+)/1% normal donkey serum (NDS)/0.3% TritonX100. 60 μL 1° antibody solution was added to each well and incubated for 1 hour at room temperature in the dark. Solution was aspirated and cells washed 3×100 uL PBS(+/+). 2° antibodies were made up in PBS(+/+)/1% normal donkey serum (NDS)/0.3% TritonX100. 60 uL 2° antibody solution was added to each well and incubated for 1 hour at room temperature in the dark. […]

[3] = test system: Shef-1 hESCs; assay: First replating step with supplemented media (immunocytochemistry, qPCR)
Source text: Cells replated at Day 12 were maintained from Day 9 to Day 12 in DMEM KSRXF alone before replating. […] Mature RPE cells sample obtained by spontaneous differentiation as disclosed in Example 10 (a) was used as a control to compare the similarity between the populations obtained upon the first replating step of directed differentiation and mature RPE cells. 19 days post replating, cells were fixed for immunocytochemistry and samples were collected for qPCR. […] QPCR analysis with a panel of markers also indicated Day 9 to be the optimum time for replating (FIGS. 4C, 4D and 4E). Similar results were obtained when cells were cultured on different matrices e.g Matrigel, Cellstart or Fibronectin before and after replate.

[4] = test system: WA26 hESCs; assay: Duration of exposure to activin A (CRALBP immunostaining); details: 100 ng/ml activin A
Procedure: On Day 9, cells were replated into 96 well CellBind plates coated with Matrigel or Cellstart at a density of 500000 cells/cm^2. The cells were maintained in either DMEM KSRXF alone or DMEM KSRXF supplemented with 100 ng/ml activin A for different lengths of time e.g 3 days, 5 days, 10 days or 18 days. At D9-18, cells were fixed for immunostaining and stained for CRALBP, a marker of RPE cells.

[5] = test system: induced pluripotent cells (iPSCs); assay: Directed differentiation of iPSCs (immunostaining); details: following replating at Day 9 in the presence of Activin A
Procedure: The directed differentiation protocol was performed on induced pluripotent cells (iPSCs). IPSCs were generated from erythroblasts obtained from healthy volunteers and reprogrammed using the CytoTune-iPS Reprogramming kit (Life Technologies, A13780-01/02). IPSCs were seeded in E8 medium at a density of 240000 cells/cm^2 and differentiated to Day 9-19 of the directed differentiation protocol with early replating. Induced cells refer to cells treated with LDN193189/SB-431542 from Day 2 to Day 6 followed by BMP4/7 from Day 6 to Day 9. Uninduced cells are maintained without exposure to both LDN193189/SB-431542 and BMP4/7. Immunostaining was performed for markers of interest. […] Following the second replete step at Day 9-19 and culturing for a period of 45 days, iPSCs derived RPE expressed a panel of RPE markers to similar levels seen in RPE derived by directed differentiation from ES cells as obtained by the protocol of example 8 (see FIGS. 15E, 15F and 15G).

B1: BMP4/7: recombinant BMP4/7 heterodimer protein, BMP pathway activator (protein, UniProt P12644 293-408; P18075 293-431, looked up)
Bone morphogenetic protein 4: SPKHHSQRARKKNKNCRRHSLYVDFSDVGWNDWIVAPPGYQAFYCHGDCPFPLADHLNSTNHAIVQTLVNSVNSSIPKACCVPTELSAISMLYLDEYDKVVLKNYQEMVVEGCGCR
Bone morphogenetic protein 7: STGSKQRSQNRSKTPKNQEALRMANVAENSSSDQRQACKKHELYVSFRDLGWQDWIIAPEGYAAYYCEGECAFPLNSYMNATNHAIVQTLVHFINPETVPKPCCAPTQLNAISVLYFDDSSNVILKKYRNMVVRACGCH
modifications: heterodimer
For B1, the “MITF expression (immunostaining and qPCR)” value (from here on “MITF expression”) [1] was “induced expression of MITF to a similar level”, the “expression of RPE markers MITF and PMEL17 (immunocytochemistry)” value ([2]; LDN193189/SB-431542 followed by BMP4/7) was “confirmed expression of RPE markers” and the “expression of RPE genes MITF and PMEL17 (qPCR)” value ([2]; added Day 6 for 3 days after 4 days LDN193189/SB-431542, 100 ng/ml BMP4/7 or 100 ng/ml activin A+10 mM Nicotinamide, vs uninduced or LDN193189/SB-431542 only controls) was “induced expression of RPE genes”. The “survival of replated cells” value ([3]; replated into DMEM KSRXF with 100 ng/ml BMP4/7) was “did not survive”.

B2: BMP4: BMP pathway activator (protein, UniProt P12644 293-408, looked up)
Bone morphogenetic protein 4: B1 Bone morphogenetic protein 4
With B2 the “MITF expression” value [1] was “induced expression of MITF to a similar level”.

B3: BMP7: BMP pathway activator (protein, UniProt P18075 293-431, looked up)
Bone morphogenetic protein 7: B1 Bone morphogenetic protein 7
With B3 the “MITF expression” value [1] was “induced expression of MITF to a similar level”.

B4: activin A: activin pathway activator (protein, UniProt P08476 311-426, looked up)
Inhibin beta A chain: GLECDGKVNICCKKQFFVSFKDIGWNDWIIAPSGYHANYCEGECPSHIAGTSGSSLSFHSTVINHYRMRGHSPFANLKSCCVPTKLRPMSMLYYDDGQNIIKKDIQNMIVEECGCS
For B4, the “induction of RPE cells differentiation / RPE markers by short exposure” value [4] was “sufficient for inducing RPE cells differentiation; also recorded: sufficient to induce expression of RPE markers”, the “mature RPE marker expression (CRALBP, MERTK) by immunocytochemistry” value ([3]; replating at D9, 100 ng/ml activin A, 19 days post replating) was “optimum and yielded high levels of RPE marker expression” and the “RPE marker CRALBP expression (immunostaining)” value [5] was “upregulated”.
